Measured values as given in patent US20080119406A1.

B1: recombinant caltrin (mouse, V5/His-tagged, secreted from baculovirus-infected Sf-9 cells) (ligand, not shown: small tags and cut ends)
chain: LICNSCEKSRDSRCTMPQSRCVAKPGESCSTVSHFVGTKHVYSKQMCSPQCKEKQLNTGKKLIYIMCCEKNLCNSF
B2: ^125I-caltrin (radiolabelled recombinant caltrin) (ligand, not shown: small tags and cut ends)
chain: B1 chain
modifications: 125I label by the lactoperoxidase method; labelled residues not stated

Tests used:
[1] = molecular target: unidentified caltrin binding site on COS-7 monkey kidney cells (monkey); assay: FACS-based binding, anti-caltrin and labelled anti-rabbit antibody
[2] = molecular target: unidentified caltrin binding site on ST2 osteoblast-like cells; assay: as above
[3] = molecular target: unidentified caltrin receptor on primary mouse calvarial osteoblasts (mouse); assay: competition curve: unlabelled caltrin against 10 ng 125I-caltrin on primary calvarial osteoblasts, 4 C, 2 h
[4] = molecular target: unidentified caltrin receptor on primary mouse calvarial osteoblasts (mouse); assay: saturation binding of 125I-caltrin on 2×10^5 primary mouse calvarial osteoblasts, Scatchard analysis

Binder | shift in the mean fluorescence [1] | shift in the mean fluorescence [2] | Kd [3] | binding sites per cell (Bmax) (binding sites per cell) [3] | Kd [4] | binding sites per cell (binding sites per cell) [4]
B1 | 80% | 75% | 2.2 nM | 14000 |  | 
B2 |  |  |  |  | 1.2 nM | 60000
